Sequences and labels used below:
B1: glmS ribozyme (parent)
chain: AUAAAAGCGCCAGAACUACAGAAAUGUAGUUGACGAGGAGGAGGUUUAUCGAAUUUUCGGCGGAUGCCUCCAAA

Common to all, as to conditions: with glucosamine-6-phosphate
Variants of B1 are the subject of data set [1]. Kind of data set: kcat; higher = faster cleavage; RNA array. Put shortly:
(§1)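 Over ~14 h at 37 °C, tiles were imaged as glucosamine-6-phosphate (40 μM to 10 mM) in HEPES/KCl/Mg(OAc)2 buffer flowed across sequenced MiSeq chips. The chips carried barcoded ribozyme variants transcribed in situ by E. coli RNA polymerase and tracked with a hybridised Cy3 probe. After normalisation to baseline and to non-cleaving reference variants, one- or two-exponential decay fits of per-tile medians gave kobs. kcat and KM followed from weighted Michaelis–Menten fits across concentrations.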

The variants in data set [2] derive from B1. Kind of data set: KM; higher = weaker cofactor use; RNA array. The method, boiled down: as §1
Data set [3] covers variants of B1. Kind of data set: self-cleavage kobs at 2500 uM GlcN6P; higher = faster cleavage; RNA array. The method, boiled down: as §1
In data set [4] the parent is B1. Kind of data set: self-cleavage kobs at 10000 uM GlcN6P; higher = faster cleavage; RNA array. The method, boiled down:
as §1

Data set [5] covers variants of B1. Kind of data set: self-cleavage kobs at 160 uM GlcN6P; higher = faster cleavage; RNA array. The method, boiled down:
as §1

Data set [6] covers variants of B1. Kind of data set: self-cleavage kobs at 640 uM GlcN6P; higher = faster cleavage; RNA array. The method, boiled down: as §1
Variants of B1 are the subject of data set [7]. Kind of data set: self-cleavage kobs at 40 uM GlcN6P; higher = faster cleavage; RNA array. Put shortly: as §1

± gives the standard error. For some of these results: Fewer inactive variants are shown than the library holds.

The kcat is the maximal rate divided by the concentration of active sites. One may read the KM as the concentration of substrate that gives half-maximal velocity. For the variant AUAAACGCGCCAGAACUACAGAAAUGUAGUUGACGAGGAGGAGGUUUAUCGAAGUUUCGGCGGAUGCCUCCAAA [A6C U54G], the kcat with glucosamine-6-phosphate [1] came to 0.000119 ± 4.3e-06 s⁻¹. In the data set with glucosamine-6-phosphate [2], the KM turned out to be 4.98 ± 0.41 mM. For the same variant, the “self-cleavage kobs at 2500 uM GlcN6P” value in the data set with glucosamine-6-phosphate [3] was 3.94e-05 ± 9.9e-06 s⁻¹. The “self-cleavage kobs at 10000 uM GlcN6P” value with glucosamine-6-phosphate [4] came to 7.93e-05 ± 1.1e-05 s⁻¹.
In the case of AUAAAAGCGCCAGAACUACAGAAAUGUAGUAUACGAGGAGGAGGUUUAUCGAAUUUUCGGCGGAUGCCUCCAAA [U31A G32U], in the data set with glucosamine-6-phosphate [1], the kcat amounted to 0.00113 ± 0.00055 s⁻¹. In addition, the “self-cleavage kobs at 160 uM GlcN6P” value in the data set with glucosamine-6-phosphate [5] turned out to be 4.59e-05 ± 2e-05 s⁻¹. The “self-cleavage kobs at 640 uM GlcN6P” value with glucosamine-6-phosphate [6] came to 6.96e-05 ± 1.7e-05 s⁻¹. Besides, the “self-cleavage kobs at 2500 uM GlcN6P” value with glucosamine-6-phosphate [3] amounted to 0.000256 ± 4.4e-05 s⁻¹. In addition, the “self-cleavage kobs at 10000 uM GlcN6P” value in the data set with glucosamine-6-phosphate [4] is 0.0006 ± 0.00016 s⁻¹.
AUAAAAGCGCCCGAACUACAGAAAUGUAGUUGACGAGCAGGAGGUUUAUCGAAUUUUCGGCGGAUGCCUCCAAA [A12C G38C]: in the data set with glucosamine-6-phosphate [1], the kcat came out at 1.42e-05 ± 5.2e-06 s⁻¹.
Take AUAAAUGCGCCAGAACUACAGAAAUGUAGUUGACGAGGAGGAGGUUUAUCGAAUUUUCGGCGGAUGCCUCUAAA [A6U C71U]: the kcat in the data set with glucosamine-6-phosphate [1] amounted to 0.000302 ± 1.3e-05 s⁻¹. Moreover, in the data set with glucosamine-6-phosphate [2], the KM is 2.71 ± 0.23 mM. The “self-cleavage kobs at 640 uM GlcN6P” value in the data set with glucosamine-6-phosphate [6] is 5.53e-05 ± 9.2e-06 s⁻¹. In the data set with glucosamine-6-phosphate [3], the “self-cleavage kobs at 2500 uM GlcN6P” value came out at 0.000149 ± 1.7e-05 s⁻¹. Moreover, in the data set with glucosamine-6-phosphate [4], the “self-cleavage kobs at 10000 uM GlcN6P” value worked out at 0.000235 ± 2.4e-05 s⁻¹.
Regarding AUAAAAGCGCCAGAACUACAGAAAUGUAAUUGACGAGGAGGAGGUGUAUCGAAUUUUCGGCGGAUGCCUCCAAA [G29A U46G], the kcat with glucosamine-6-phosphate [1] was 0.00124 ± 0.00055 s⁻¹. Besides, in the data set with glucosamine-6-phosphate [5], the “self-cleavage kobs at 160 uM GlcN6P” value is 5.62e-05 ± 1.3e-05 s⁻¹. Besides, the “self-cleavage kobs at 640 uM GlcN6P” value with glucosamine-6-phosphate [6] is 0.000243 ± 4.1e-05 s⁻¹. The “self-cleavage kobs at 2500 uM GlcN6P” value in the data set with glucosamine-6-phosphate [3] is 0.000425 ± 7.7e-05 s⁻¹. In addition, the “self-cleavage kobs at 10000 uM GlcN6P” value with glucosamine-6-phosphate [4] is 0.00128 ± 0.00027 s⁻¹.
Turning to AUAAAAGCGUCAGAACUACAGAAAUGUAGUUGACGAGGAGGAGGUUUAUCGAAUUUUCGGCGAAUGCCUCCAAA [C10U G63A], the kcat in the data set with glucosamine-6-phosphate [1] was less than 1e-05 s⁻¹. In the data set with glucosamine-6-phosphate [6], the “self-cleavage kobs at 640 uM GlcN6P” value was less than 1e-05 s⁻¹. Also, the “self-cleavage kobs at 2500 uM GlcN6P” value with glucosamine-6-phosphate [3] is less than 1e-05 s⁻¹.
For the variant AUAAAAGCGCCAGCACUACAGAAAUGUAGUUGACGAGGAGGAGCUUUAUCGAAUUUUCGGCGGAUGGCUCCAAA [A14C G44C C67G], the kcat in the data set with glucosamine-6-phosphate [1] stood at 0.00155 ± 0.00052 s⁻¹. The “self-cleavage kobs at 40 uM GlcN6P” value in the data set with glucosamine-6-phosphate [7] turned out to be 3.15e-05 ± 1.2e-05 s⁻¹. In the data set with glucosamine-6-phosphate [6], the “self-cleavage kobs at 640 uM GlcN6P” value amounted to 0.000389 ± 0.0001 s⁻¹. For the same variant, the “self-cleavage kobs at 2500 uM GlcN6P” value with glucosamine-6-phosphate [3] is 0.000548 ± 0.00015 s⁻¹. The “self-cleavage kobs at 10000 uM GlcN6P” value with glucosamine-6-phosphate [4] is 0.00139 ± 0.00022 s⁻¹.
As for AUAAAAGCGCCGGAACUACAGAAAUGUAGUUGACGAGGAGGAGGUUUAUCGAGUUUUCGGCGGAUGCCUCCAAA [A12G A53G], the kcat with glucosamine-6-phosphate [1] stood at 0.0017 ± 0.00017 s⁻¹. Also, the KM in the data set with glucosamine-6-phosphate [2] was found to be 4.47 ± 0.62 mM. Besides, the “self-cleavage kobs at 160 uM GlcN6P” value with glucosamine-6-phosphate [5] is 5.44e-05 ± 7.9e-06 s⁻¹. Also, in the data set with glucosamine-6-phosphate [6], the “self-cleavage kobs at 640 uM GlcN6P” value amounted to 0.000231 ± 3.1e-05 s⁻¹. The “self-cleavage kobs at 2500 uM GlcN6P” value with glucosamine-6-phosphate [3] came out at 0.000633 ± 7e-05 s⁻¹. Further, in the data set with glucosamine-6-phosphate [4], the “self-cleavage kobs at 10000 uM GlcN6P” value was 0.00114 ± 0.00015 s⁻¹.
For AUAAAAGCGCCAGAACUACAGAAAUGUAGUUGACGAGGAGGAGGUUUAUCGAGUUUUAGGCGGAUGCCUCCAAA [A53G C58A], the turnover number (kcat) in the data set with glucosamine-6-phosphate [1] is 0.000622 ± 7.5e-05 s⁻¹. Also, the KM with glucosamine-6-phosphate [2] amounted to 2.19 ± 0.46 mM. Besides, the “self-cleavage kobs at 160 uM GlcN6P” value in the data set with glucosamine-6-phosphate [5] was 5.7e-05 ± 1.3e-05 s⁻¹. Further, in the data set with glucosamine-6-phosphate [6], the “self-cleavage kobs at 640 uM GlcN6P” value worked out at 0.000129 ± 1.6e-05 s⁻¹. Further, in the data set with glucosamine-6-phosphate [3], the “self-cleavage kobs at 2500 uM GlcN6P” value worked out at 0.00036 ± 4.4e-05 s⁻¹. For the same variant, in the data set with glucosamine-6-phosphate [4], the “self-cleavage kobs at 10000 uM GlcN6P” value came out at 0.0005 ± 5.8e-05 s⁻¹.

For the origin of these results see the supplement of paper PMC7125110.
